Data: US20240317871A1 (IMMUNOMIC THERAPEUTICS, published 2024)
Positions count from the first letter of the chain named.

T1: Human HEVM recombinant protein (Sino Biological, 10334-H02H) (human, UniProt Q92956 39-202)
T1 construct: construct known only by catalogue number; also called HVEM; human HVEM
T1 sequence (looked up): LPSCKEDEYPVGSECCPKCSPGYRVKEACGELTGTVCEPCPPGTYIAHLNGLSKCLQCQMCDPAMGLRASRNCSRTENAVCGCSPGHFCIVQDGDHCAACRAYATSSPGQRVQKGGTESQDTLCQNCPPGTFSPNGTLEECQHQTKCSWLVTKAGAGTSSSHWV

T2: murine HVEM (murine, UniProt Q80WM9 39-206, limits assumed)
T2 construct: also called Mouse
T2 sequence (looked up): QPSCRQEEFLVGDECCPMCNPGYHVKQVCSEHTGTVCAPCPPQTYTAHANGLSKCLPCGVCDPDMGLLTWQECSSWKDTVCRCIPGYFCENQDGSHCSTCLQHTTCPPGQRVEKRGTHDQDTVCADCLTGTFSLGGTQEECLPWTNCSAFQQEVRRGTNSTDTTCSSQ

T3: human HVEM (human, UniProt Q92956 39-202, limits assumed)
T3 sequence (looked up): T1 sequence (looked up)

T4: cynomolgus monkey HVEM (cynomolgus monkey, UniProt A0A2K5W0R1 39-203)
T4 sequence: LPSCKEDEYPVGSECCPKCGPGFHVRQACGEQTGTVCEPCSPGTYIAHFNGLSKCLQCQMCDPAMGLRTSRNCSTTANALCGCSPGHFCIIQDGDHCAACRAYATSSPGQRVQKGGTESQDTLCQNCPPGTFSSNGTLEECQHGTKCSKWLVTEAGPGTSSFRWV

T5: His-tagged human HVEM (human, UniProt Q92956 39-202, limits assumed)
T5 construct: Analyte of the BLI assay, 200 nM in PBS; not shown: His tag
T5 sequence (looked up): T1 sequence (looked up)

B1: Ab_058 (H5S19-6A8A) (antibody, V domains shown)
VH: EVQLVESGGGLVKPGGSLKLSCAASGFTFNIYTMSWVRQSPEMRLEWVAEISSGGSHTYYPDTVTGRFTISRDNAKNTLYLEMSSLRSEDTAIYYCARGGSLFDYWGQGTTLTVSS
VL: DVQITQSPSYLAASPGETITINCRTSKNISKYLAWYQEKPGKTNKLLIYSGSTLQSGIPSRFSGSGSGTDFTLTISSLEPEDFVMYHCQQHNEYPWTFGGGTKLEIK
notes: also called Ab_58
B2: Ab_025 (H5S15-2A2A) (antibody, V domains shown)
VH: EVQLQQSGAELVKPGASVKLSCTASGFNIKDTYMHWVKQRPEQGLEWIGRIDPANDNTKYDPKFQGKATITADTSSNTAYLQLSSLTSEDTAVYYCARVYYAMDYWGQGTSVTVSS
VL: DIQMTQSPASLSASVGETVTITCRASENIYSYLAWYQQKQGKSPQLLVYNAKTLAEGVPSRFSGSGSGTQFSLKINSLQPEDFGSYYCQHHYGTYTFGGGTKLEIK
notes: also called Ab_25
B3: Ab_087 (H5S20-59A43A) (antibody, V domains shown)
VH: EVKLVESGGGLVKPGGSLKLSCAASGFTFSSYAMSWVRQTPEKRLEWVASISSGSSTYYPDSVKGRFTISRDNARNILYLQMSSLRSEDTAMYYCAKGRGYGNYLYAMDYWGQGTSVTVSS
VL: DIVMTQSQKFMSTSVGDRVSVTCKASQNVGTNVAWYQQKPGQSPKALIYSASYRYSGVPDRFTGSGSGTDFTLTISNVQSEDLAEYFCQQYNSYPLTFGGGTKLEIK
notes: also called Ab_87
B4: Ab_008 (H5S14-11A10A) (antibody, V domains shown)
VH: EVKLVESGGGLVKPGGSLRLSCAASGFTFSSFAMSWIRQTPEKGLEWVASITTGGSSYSPDSLKGRFTISRDNVRNIVYLQMSSLRSEDTAMYACARGGGGNYFWFAYWGQGTLVTVSA
VL: DVVMTQTPLSLPVSLGDQASISCRSSQSLVHSNGNTYLHWYLQKPGQSPKLLIYKVSNRFSGVPDRFSGSGSGTDFTLKISRVEAEDLGVYFCSQSIHVPFTFGSGTKLEIK
notes: also called Ab_8
B5: Ab_009 (H5S14-8A7A) (antibody, V domains shown)
VH: EVKLVESGGDLVKPGGSLKLSCAASGFTFSNYAMSWVRQTPEKRLEWVASISTGGTTSYYSDSVKGRFTISRDNARNILYLQMSSLRSEDTAMYYCARGGGGNYFWFTYWGQGTLVTISA
VL: B4 VL with I97T
notes: also called Ab_9
B6: Ab_010 (H5S14-10A9A) (antibody, V domains shown)
VH: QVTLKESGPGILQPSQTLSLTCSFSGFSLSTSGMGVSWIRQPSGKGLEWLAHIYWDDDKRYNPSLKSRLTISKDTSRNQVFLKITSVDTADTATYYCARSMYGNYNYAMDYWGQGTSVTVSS
VL: DIQMTQSPASLSASVGETVTITCRASENIYSYLAWYQQKQGKSPQLLVYNAKTLAEGVPSRFSGSGSGTQFSLKINSLQPEDFGSYYCQHHYGTMYTFGGGTKLEIK
notes: also called Ab_10
B7: Ab_079 (H5S20-22A18A) (antibody, V domains shown)
VH: EVQLQQSGAELVKPGASVKLSCTASGFNIKDTYMHWVKQRPEQGLEWIGRIDPANGNTKYAPKFQGKATITADTSSNTAYLQLSSLTSEDTAVYYCARSFGNYFDYWGQGTTLTVSS
VL: NIVLTQSPASLAVSLGQRATISCRASESVDSYGNSFMHWYQQKPGQPPKLLIYLASNLESGVPARFSGSGSRTDFTLTIDPVEADDAATYYCQQNYADPWTFGGGTKLEIK
notes: also called Ab_79
B8: Ab_073 (H5S20-9A9A) (antibody, V domains shown)
VH: EVQLQQSGADLVKPGASVKLSCTASGFNIRDTYMHWVNQRPEQGLEWIGRIDPANGNTKYAPKFQGRATITADTSSNTAYLHLSSLTSEDTAVYYCAGYGNSPWFAYWGQGTLVTVSA
VL: DVLMTQTPLSLPVNLGDQASISCRSSQSIVHSNGNTYLEWYLQKPGQSPKLLIYKVSNRFSGVPDRFSGSGSGTDFTLKISRVEAEDLGVYYCFQGSHVPLTFGAGTKLELK
notes: also called Ab_73
B9: Ab_083 (H5S20-49A39A) (antibody, V domains shown)
VH: EVQLQQSGAELVKPGASVKLSCTASGFNIKDTYVHWVKERPEQGLEWIGRIDPANDNTKYAPKFQVKATITADTSSNTAYLQLSSLTSEDNAVYYCAPYGNYPAWFAYWGQGTLVTVSA
VL: B8 VL with N14S, A19V, S28N
notes: also called Ab_153; Ab_83
B10: Ab_026 (H5S15-11A3B) (antibody, V domains shown)
VH: EVQLQQSGADLVKPGASVKLSCTASGFNIKDTYMHWVKQRPEQGLEWIGRIAPANGRTKYDPKFQGKATITADTSSNTAYLQLSSLTSEDTAVYYCANYYASSYDWFAYWGQGTLVTVSA
VL: B8 VL with P12T, N14S, D17H
notes: also called Ab_26
B11: Ab_074 (H5S20-52A21A) (antibody, V domains shown)
VH: B8 VH with D10E, R30K, M34I, V37L, N57K, Y60F, G66D, R67K, H82Q
VL: B8 VL with N14S, F60V
notes: also called Ab_74

Legend:
[1] = target: T1, Human HEVM recombinant protein (Sino …); assay: competition ELISA, competitor BTLA-His
Protocol: The competitive activity of HVEM antibody to BTLA or LIGHT was evaluated with ELISA-based competitive assay. Briefly Human HEVM recombinant protein (Sino Biological, 10334-H02H, 4 ug/ml, 100 ul/well) was coated to ELISA plate (Thermo Scientific, 469949, 4C overnight). A pre-mixture of HVEM antibody clone with seral dilution and 400 nM BTLA-His (R&D systems, 9235-BT-050) or LIGHT-His (SinoBiological, 10386-H07H) recombinant protein was made and added to the ELISA plate after blocking with 3% BSA (200 ul/well, RT 2 Hr) for 1 Hr at RT. The serial dilutions of HVEM antibody clone involve 7 different concentrations, with a 3-fold dilution performed start from 100 nM for BTLA or 325 nM for LIGHT competitive assay. The concentration was the final concentration. Plate was washed with PBST; diluted HRP-anti-His (Biolegend, 652504, 1:1000) with PBS containing 5% FBS was added 100 ul per well for 1 Hr at RT. TMB substrate (KPL, 52-00-00) 100 ul per well after washing and incubate at room temperature for 15 minutes; then stop the development by adding 100 ul stop solution (KPL, 50-85-06). Plate was read at 450 nm. The IC50 was calculated using GraphPad Prism software (GraphPad Software, Inc. San Diego, CA, USA).

murine HVEM = target: T2, murine HVEM; assay: ELISA
human HVEM = target: T3, human HVEM; assay: ELISA
cynomolgus monkey HVEM = target: T4, cynomolgus monkey HVEM; assay: ELISA
His-tagged human HVEM = target: T5, His-tagged human HVEM; assay: BLI OctetRed96, mAb captured, 200 nM His-HVEM
Protocol: Binding of antibodies to HVEM may also be determined by bio-layer interferometry (BLI) on an OctetRed96@ system (Sartorius). (See http://www.fortebio.com/bli_technology.html for general description of a BLI assay.) For this experiment, murine anti-human HVEM antibodies were captured from culture supernatant using anti-mouse IgG Fc capture and immobilized to dip and read biosensors. Sensors were then dipped into a solution of 200 nM His-tagged human HVEM in phosphate-buffered saline (PBS). Probes were dipped into PBS assay buffer and the dissociation rate (koff) was measured. The association rate (kₒₙ) and affinity (KD) were determined by curve fitting analysis.

| Binder | IC50 [1] [nM] | ELISA signal (murine HVEM) | ELISA signal (human HVEM) | ELISA signal (cynomolgus monkey HVEM) | Kd (His-tagged human HVEM) [nM] | koff (His-tagged human HVEM) [s⁻¹] | kon (His-tagged human HVEM) [M⁻¹ s⁻¹] |
| --- | --- | --- | --- | --- | --- | --- | --- |
| B1 | 1.3 | 0.043 | 3.16 | 0.064 | 2.67 | 0.00125 | 469000 |
| B2 | 10 | 0.045 | 3.01 | 3.16 | 11.6 | 0.00596 | 515000 |
| B3 | 5.2 | 0.045 | 3.22 | 0.069 | 1570 | 0.323 | 206000 |
| B4 | 1.9 | 0.077 | 3.4 | 2.94 | 4.8 | 0.00231 | 482000 |
| B5 | 2.1 | 0.047 | 3.11 | 1.88 | 35.1 | 0.0175 | 497000 |
| B6 | 11.3 | 0.044 | 2.68 | 0.068 | 7210 | 1.15 | 159000 |
| B7 | 11 | 0.054 | 2.97 | 0.062 | 13.9 | 0.0216 | 1.56e+06 |
| B8 | 3.2 | 0.045 | 3.24 | 0.062 | 370 | 0.109 | 294000 |
| B9 | 1.9 | 0.043 | 3.19 | 0.06 | 65.8 | 0.0167 | 254000 |
| B10 | 2.4 | 0.043 | 3.1 | 0.088 | 11.1 | 0.00864 | 776000 |
| B11 | 1.6 | 0.044 | 3.26 | 0.06 | 48.2 | 0.0272 | 565000 |
